Our source for the fold increase in affinity compared to AH and Kd values is publication PMC6839005.

Holding throughout (assay): SPR
A general note: SPR reads the build-up and loss of mass on a sensor chip optically.

In assay [1] the target is Recombinant HIV-1 gp120 ZM53M.PB12 (HIV-1 ZM53M.PB12 (Clade C)).
Assay [2] concerns the target Recombinant HIV-1 gp120 SF162 (Clade B) (HIV-1 SF162 (Clade B)).
Assay [3] addresses Human IgG1κ isotype control (human).

As a reminder, the Kd is the equilibrium constant for the complex coming apart. High values mean lower affinity, low ones higher affinity.

Turning to “AvFc (lectibody: Avaren fused to the Fc region of human IgG1) (from UniProt Q9KWN0 47-160) (Fc fusion)”, the fold increase in affinity compared to AH in assay [1] and in assay [2] was 10 fold each time.

On to “Neonatal Fc receptor (FcRn) (from UniProt P55899 24-365)”, for which, in assay [3], the Kd came to 18 nM. This lies in the double-digit nanomolar range. As to “Recombinant human Fc gamma receptor IA (FcγRI, CD64) (from UniProt P12314 16-374)”, the Kd in assay [3] was 0.11 nM. Still for that read-out and setting: the result for “Recombinant human Fc gamma receptor IIIA (FcγRIIIa, CD16) (from UniProt P08637 17-254)” reads 680 nM.
